We go through seven molecules from patent US20110091994A1, “Methods for Screening Compounds for Treating and/or Preventing an Hepatitis C Virus Infection” (priority 2008, published 2011).

For assay [1], the target named is T1, HCV ORFs (Gal4-DB fusions) (Hepatitis C virus genotype 1b, UniProt Q9WMX2).
T1 construct: expressed in transfected cells; host or cells: Saccharomyces cerevisiae MAV203 (IMAP1) / AH109 (IMAP2)
In kind it is binding, HCV genotype 1b, isolate con1. Conditions: human protein as prey.

In assay [2] the test system is HCV ORFs (Gal4-DB fusions). It counts as binding, HCV genotype 1b, isolate con1. The following applies: human protein listed by gene symbol; the value names the HCV protein it interacts with.

Read-outs that look alike come from different tables or passages of the source.
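Note: yeast two-hybrid screens using HCV genotype 1b proteins fused to Gal4-DB as baits against prey cDNA libraries from human spleen and foetal brain, IMAP1 via transformation and IMAP2 via mating.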

B1: BIN1 (protein, UniProt O00499 2-593, looked up)
Myc box-dependent-interacting …: AEMGSKGVTAGKIASNVQKKLTRAQEKVLQKLGKADETKDEQFEQCVQNFNKQLTEGTRLQKDLRTYLASVKAMHEASKKLNECLQEVYEPDWPGRDEANKIAENNDLLWMDYHQKLVDQALLTMDTYLGQFPDIKSRIAKRGRKLVDYDSARHHYESLQTAKKKDEAKIAKPVSLLEKAAPQWCQGKLQAHLVAQTNLLRNQAEEELIKAQKVFEEMNVDLQEELPSLWNSRVGFYVNTFQSIAGLEENFHKEMSKLNQNLNDVLVGLEKQHGSNTFTVKAQPSDNAPAKGNKSPSPPDGSPAATPEIRVNHEPEPAGGATPGATLPKSPSQLRKGPPVPPPPKHTPSKEVKQEQILSLFEDTFVPEISVTTPSQFEAPGPFSEQASLLDLDFDPLPPVTSPVKAPTPSGQSIPWDLWEPTESPAGSLPSGEPSAAEGTFAVSWPSQTAEPGPAQPAEASEVAGGTQPAAGAQEPGETAASEAASSSLPAVVVETFPATVNGTVEGGSGAGRLDLPPGFMFKVQAQHDYTATDTDELQLKAGDVVLVIPFQNPEEQDEGWLMGVKESDWNQHKELEKCRGVFPENFTERVP
In the case of B1, in assay [1] (HCV protein NS5A as bait), the “IMAP Y2H IMAP1 (number of IST)” value is recorded as 16 and the “IMAP Y2H IMAP2 (number of IST)” value is 14.

B2: NAPL1L2 (protein, UniProt Q9ULW6 1-460, looked up)
Nucleosome assembly protein …: MAESENRKELSESSQEEAGNQIMVEGLGEHLERGEDAAAGLGDDGKCGEEAAAGLGEEGENGEDTAAGSGEDGKKGGDTDEDSEADRPKGLIGYVLDTDFVESLPVKVKYRVLALKKLQTRAANLESKFLREFHDIERKFAEMYQPLLEKRRQIINAIYEPTEEECEYKSDSEDCDDEEMCHEEMYGNEEGMVHEYVDEDDGYEDYYYDYAVEEEEEEEEEDDIEATGEENKEEEDPKGIPDFWLTVLKNVDTLTPLIKKYDEPILKLLTDIKVKLSDPGEPLSFTLEFHFKPNEYFKNELLTKTYVLKSKLAYYDPHPYRGTAIEYSTGCEIDWNEGKNVTLKTIKKKQKHRIWGTIRTVTEDFPKDSFFNFFSPHGITSNGRDGNDDFLLGHNLRTYIIPRSVLFFSGDALESQQEGVVREVNDAIYDKIIYDNWMAAIEEVKACCKNLEALVEDIDR
For B2, the “IMAP Y2H IMAP2 (number of IST)” value in assay [1] (HCV protein NS3 as bait) was found to be 1.

B3: DLAT (protein, UniProt P10515 87-647, looked up)
Dihydrolipoyllysine-residue …: SLPPHQKVPLPSLSPTMQAGTIARWEKKEGDKINEGDLIAEVETDKATVGFESLEECYMAKILVAEGTRDVPIGAIICITVGKPEDIEAFKNYTLDSSAAPTPQAAPAPTPAATASPPTPSAQAPGSSYPPHMQVLLPALSPTMTMGTVQRWEKKVGEKLSEGDLLAEIETDKATIGFEVQEEGYLAKILVPEGTRDVPLGTPLCIIVEKEADISAFADYRPTEVTDLKPQVPPPTPPPVAAVPPTPQPLAPTPSAPCPATPAGPKGRVFVSPLAKKLAVEKGIDLTQVKGTGPDGRITKKDIDSFVPSKVAPAPAAVVPPTGPGMAPVPTGVFTDIPISNIRRVIAQRLMQSKQTIPHYYLSIDVNMGEVLLVRKELNKILEGRSKISVNDFIIKASALACLKVPEANSSWMDTVIRQNHVVDVSVAVSTPAGLITPIVFNAHIKGVETIANDVVSLATKAREGKLQPHEFQGGTFTISNLGMFGIKNFSAIINPPQACILAIGASEDKLVPADNEKGFDVASMMSVTLSCDHRVVDGAVGAQWLAEFRKYLEKPITMLL
For B3, the “Interaction with viral protein” value in assay [2] was “NS3”. Moreover, the “IMAP Y2H IMAP2 (number of IST)” value in assay [1] (HCV protein NS3 as bait) was 8.

B4: EGFL7 (protein, UniProt Q9UHF1 24-273, looked up)
Epidermal growth factor-like …: YRPGRRVCAVRAHGDPVSESFVQRVYQPFLTTCDGHRACSTYRTIYRTAYRRSPGLAPARPRYACCPGWKRTSGLPGACGAAICQPPCRNGGSCVQPGRCRCPAGWRGDTCQSDVDECSARRGGCPQRCVNTAGSYWCQCWEGHSLSADGTLCVPKGGPPRVAPNPTGVDSAMKEEVQRLQSRVDLLEEKLQLVLAPLHSLASQALEHGLPDPGSLLVHSFQQLGRIDSLSEQISFLEEQLGSCSCKKDS
B4: in assay [2], the “Interaction with viral protein” value was “CORE”. In assay [1] (HCV protein CORE as bait), the “IMAP Y2H IMAP2 (number of IST)” value came out at 1.

B5: DDX3Y (protein, UniProt O15523 2-660, looked up)
ATP-dependent RNA helicase …: SHVVVKNDPELDQQLANLDLNSEKQSGGASTASKGRYIPPHLRNREASKGFHDKDSSGWSCSKDKDAYSSFGSRDSRGKPGYFSERGSGSRGRFDDRGRSDYDGIGNRERPGFGRFERSGHSRWCDKSVEDDWSKPLPPSERLEQELFSGGNTGINFEKYDDIPVEATGSNCPPHIENFSDIDMGEIIMGNIELTRYTRPTPVQKHAIPIIKGKRDLMACAQTGSGKTAAFLLPILSQIYTDGPGEALKAVKENGRYGRRKQYPISLVLAPTRELAVQIYEEARKFSYRSRVRPCVVYGGADIGQQIRDLERGCHLLVATPGRLVDMMERGKIGLDFCKYLVLDEADRMLDMGFEPQIRRIVEQDTMPPKGVRHTMMFSATFPKEIQMLARDFLDEYIFLAVGRVGSTSENITQKVVWVEDLDKRSFLLDILGATGSDSLTLVFVETKKGADSLEDFLYHEGYACTSIHGDRSQRDREEALHQFRSGKSPILVATAVAARGLDISNVRHVINFDLPSDIEEYVHRIGRTGRVGNLGLATSFFNEKNMNITKDLLDLLVEAKQEVPSWLENMAYEHHYKGGSRGRSKSNRFSGGFGARDYRQSSGSSSSGFGASRGSSSRSGGGGYGNSRGFGGGGYGGFYNSDGYGGNYNSQGVDWWGN
Turning to B5, the “Interaction with viral protein” value in assay [2] is reported as “CORE”. Further, the “IMAP Y2H IMAP2 (number of IST)” value in assay [1] (HCV protein CORE as bait) stood at 3.

B6: UBASH3A (protein, UniProt P57075 1-661, looked up)
Ubiquitin-associated and SH3 …: MAAGETQLYAKVSNKLKSRSSPSLLEPLLAMGFPVHTALKALAATGRKTAEEALAWLHDHCNDPSLDDPIPQEYALFLCPTGPLLEKLQEFWRESKRQCAKNRAHEVFPHVTLCDFFTCEDQKVECLYEALKRAGDRLLGSFPTAVPLALHSSISYLGFFVSGSPADVIREFAMTFATEASLLAGTSVSRFWIFSQVPGHGPNLRLSNLTRASFVSHYILQKYCSVKPCTKQLHLTLAHKFYPHHQRTLEQLARAIPLGHSCQWTAALYSRDMRFVHYQTLRALFQYKPQNVDELTLSPGDYIFVDPTQQDEASEGWVIGISQRTGCRGFLPENYTDRASESDTWVKHRMYTFSLATDLNSRKDGEASSRCSGEFLPQTARSLSSLQALQATVARKSVLVVRHGERVDQIFGKAWLQQCSTPDGKYYRPDLNFPCSLPRRSRGIKDFENDPPLSSCGIFQSRIAGDALLDSGIRISSVFASPALRCVQTAKLILEELKLEKKIKIRVEPGIFEWTKWEAGKTTPTLMSLEELKEANFNIDTDYRPAFPLSALMPAESYQEYMDRCTASMVQIVNTCPQDTGVILIVSHGSTLDSCTRPLLGLPPRECGDFAQLVRKIPSLGMCFCEENKEEGKWELVNPPVKTLTHGANAAFNWRNWISGN
On to B6, for which, in assay [1] (HCV protein NS5A as bait), the “IMAP Y2H IMAP2 (number of IST)” value stood at 1.

B7: DDX3X (protein, UniProt O00571 2-662, looked up)
ATP-dependent RNA helicase …: SHVAVENALGLDQQFAGLDLNSSDNQSGGSTASKGRYIPPHLRNREATKGFYDKDSSGWSSSKDKDAYSSFGSRSDSRGKSSFFSDRGSGSRGRFDDRGRSDYDGIGSRGDRSGFGKFERGGNSRWCDKSDEDDWSKPLPPSERLEQELFSGGNTGINFEKYDDIPVEATGNNCPPHIESFSDVEMGEIIMGNIELTRYTRPTPVQKHAIPIIKEKRDLMACAQTGSGKTAAFLLPILSQIYSDGPGEALRAMKENGRYGRRKQYPISLVLAPTRELAVQIYEEARKFSYRSRVRPCVVYGGADIGQQIRDLERGCHLLVATPGRLVDMMERGKIGLDFCKYLVLDEADRMLDMGFEPQIRRIVEQDTMPPKGVRHTMMFSATFPKEIQMLARDFLDEYIFLAVGRVGSTSENITQKVVWVEESDKRSFLLDLLNATGKDSLTLVFVETKKGADSLEDFLYHEGYACTSIHGDRSQRDREEALHQFRSGKSPILVATAVAARGLDISNVKHVINFDLPSDIEEYVHRIGRTGRVGNLGLATSFFNERNINITKDLLDLLVEAKQEVPSWLENMAYEHHYKGSSRGRSKSSRFSGGFGARDYRQSSGASSSSFSSSRASSSRSGGGGHGSSRGFGGGGYGGFYNSDGYGGNYNSQGVDWWGN
In the case of B7, the “IMAP Y2H IMAP2 (number of IST)” value in assay [1] (HCV protein CORE as bait) was 1.
